The text below walks through data of IntAct's records for PubMed 15604664.

First the molecules themselves.
B1: Floral homeotic protein … (Arabidopsis thaliana (Mouse-ear cress)), P48007 (parent)
chain: MGRGKIEIKRIENANNRVVTFSKRRNGLVKKAKEITVLCDAKVALIIFASNGKMIDYCCPSMDLGAMLDQYQKLSGKKLWDAKHENLSNEIDRIKKENDSLQLELRHLKGEDIQSLNLKNLMAVEHAIEHGLDKVRDHQMEILISKRRNEKMMAEEQRQLTFQLQQQEMAIASNARGMMMRDHDGQFGYRVQPIQPNLQEKIMSLVID

In the first test the parent is B1. Particulars: with sep3_arath SEP3, O22456.
sep3_arath SEP3, O22456, sequence (O22456 whole entry): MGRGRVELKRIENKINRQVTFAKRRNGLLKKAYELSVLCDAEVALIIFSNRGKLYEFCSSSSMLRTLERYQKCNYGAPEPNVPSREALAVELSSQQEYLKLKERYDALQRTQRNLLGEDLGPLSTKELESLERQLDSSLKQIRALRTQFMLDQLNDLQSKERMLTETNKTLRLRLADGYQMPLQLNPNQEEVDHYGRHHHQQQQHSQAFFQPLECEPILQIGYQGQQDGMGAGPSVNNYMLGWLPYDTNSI
For the variant MGRGKIEIKRIENANNRVVTFSKRRNGLVKKAKEITVLCDAKVALIIFASNGKMIDYCCPSMDLGAMLDQYQKLSGKKLWDAKHENLSNEIDRIKKENDSLQLELRHLKGEDIQSPNLKNLMAVEHAIEHGLDKVRDHQMEILISKRRNEKMMAEEQRQLTFQLQQQEMAIASNARGMMMRDHDGQFGYRVQPIQPNLQEKIMSLVID [L116P], the “effect of a mutation on the interaction” value is “decreasing interaction”. The same measure, in the same setting: the same measure for MGRGKIEIKRIENANNRVVTFSKRRNGLVKKAKEITVLCDAKVALIIFASNGKMIDYCCPSMDLGAMLDQYQKLSGKKLWDAKHENLSNEIDRIKKENDSLPLELRHLKGEDIQSLNLKNLMAVEHAIEHGLDKVRDHQMEILISKRRNEKMMAEEQRQLTFQLQQQEMAIASNARGMMMRDHDGQFGYRVQPIQPNLQEKIMSLVID [Q102P]: “decreasing interaction”.

Turning to MGRGKIEIKRIENANNRVVTFSKRRNGLVKKAKEITVLCDAKVALIIFASNGKMIDYCCPSMDLGAMLDQYQKLSGKKLWDAKHENLSNEIDRIKKENDSLQLELRHLKGEDIQSLNLKNLMAVEHAIEHGLDKVRDHQMEILISKRRNEKMMAEEQRQPTFQLQQQEMAIASNARGMMMRDHDGQFGYRVQPIQPNLQEKIMSLVID [L160P], the “effect of a mutation on the interaction” value is given as “increasing interaction”. The same measure, in the same setting: in the case of MGRGKIEIKRIENANNRVVTFSKRRNGLVKKAKEITVLCDAKVALIIFASNGKMIDYCCPSMDLGAMLDQYQKLSGKKLWDAKHENLSNEIDRIKKENDSLQLELRHLKGEDIQSLNLKNLMAVEHAIEHGLDKVRDHQMEILISKRRNEKMMPEEQRQLTFQLQQQEMAIASNARGMMMRDHDGQFGYRVQPIQPNLQEKIMSLVID [A154P] it was “decreasing interaction”; in that of MGRGKIEIKRIENANNRVVTFSKRRNGLVKKAKEITVLCDAKVALIIFASNGKMIDYCCPSMDLGAMLDQYQKLSGKKLWDAKHENLSNEIDRIKKENDSLQLELRHLKGEDIQSLNLKNLMAVEHAIEHGLDKVRDHQMEILIPKRRNEKMMAEEQRQLTFQLQQQEMAIASNARGMMMRDHDGQFGYRVQPIQPNLQEKIMSLVID [S145P], “decreasing interaction”; in that of MGRGKIEIKRIENANNRVVTFSKRRNGLVKKAKEITVLCDAKVALIIFASNGKMIDYCCPSMDLGAMLDQYQKLSGKKLWDAKHENLSNEIDRIKKENDSLQLELRHLKPEDIQSLNLKNLMAVEHAIEHGLDKVRDHQMEILISKRRNEKMMAEEQRQLTFQLQQQEMAIASNARGMMMRDHDGQFGYRVQPIQPNLQEKIMSLVID [G110P], “decreasing interaction”. Consider MGRGKIEIKRIENANNRVVTFSKRRNGLVKKAKEITVLCDAKVALIIFASNGKMIDYCCPSMDLGAMLDQYQKLSGKKLWDAKHENLSNEIDRIKKENDSLQLELRHLKGEDIQSLNLKNLMAVEHAIEHPLDKVRDHQMEILISKRRNEKMMAEEQRQLTFQLQQQEMAIASNARGMMMRDHDGQFGYRVQPIQPNLQEKIMSLVID [G131P], for which the “effect of a mutation on the interaction” value is recorded as “decreasing interaction”. In the case of MGRGKIEIKRIENANNRVVTFSKRRNGLVKKAKEITVLCDAKVALIIFASNGKMIDYCCPSMDLGAMLDQYQKLSGKKLWDAKHENLSNEIDRIKKENDSLQLELRHLKGEDIQSLNLKNLMAVEHAIEHGLDKVRDHQMEPLISKRRNEKMMAEEQRQLTFQLQQQEMAIASNARGMMMRDHDGQFGYRVQPIQPNLQEKIMSLVID [I142P], the “effect of a mutation on the interaction” value is “decreasing interaction”. For MGRGKIEIKRIENANNRVVTFSKRRNGLVKKAKEITVLCDAKVALIIFASNGKMIDYCCPSMDLGAMLDQYQKLSGKKLWDAKHENLSNEIDRIKKENDSLQLELRHLKGEDIQSLNLKNLMAVEHAIEHGPDKVRDHQMEILISKRRNEKMMAEEQRQLTFQLQQQEMAIASNARGMMMRDHDGQFGYRVQPIQPNLQEKIMSLVID [L132P], the “effect of a mutation on the interaction” value was “decreasing interaction”. The same measure, in the same setting: the same measure for MGRGKIEIKRIENANNRVVTFSKRRNGLVKKAKEITVLCDAKVALIIFASNGKMIDYCCPSMDLGAMLDQYQKLSGKKLWDAKHENLSNEIDRIKKENDSLQPELRHLKGEDIQSLNLKNLMAVEHAIEHGLDKVRDHQMEILISKRRNEKMMAEEQRQLTFQLQQQEMAIASNARGMMMRDHDGQFGYRVQPIQPNLQEKIMSLVID [L103P]: “decreasing interaction”; for MGRGKIEIKRIENANNRVVTFSKRRNGLVKKAKEITVLCDAKVALIIFASNGKMIDYCCPSMDLGAMLDQYQKLSGKKLWDAKHENLSNEIDRIKKENDSLQLELRHLKGEDIQSLNLKNLMAVEHAIEHGLDKVRDHQMEILISKRRNEKMPAEEQRQLTFQLQQQEMAIASNARGMMMRDHDGQFGYRVQPIQPNLQEKIMSLVID [M153P]: “decreasing interaction”; for MGRGKIEIKRIENANNRVVTFSKRRNGLVKKAKEITVLCDAKVALIIFASNGKMIDYCCPSMDLGAMLDQYQKLSGKKLWDAKHENLSNEIDRIKKENDSLQLELRHLKGEDIQSLNLKNLMAVEHAIEHGLDKVRDHQMEILISKRRNEKMMAEEQRQLTFQLQQPEMAIASNARGMMMRDHDGQFGYRVQPIQPNLQEKIMSLVID [Q167P]: “increasing interaction”. Same read-out and setting: the same measure for MGRGKIEIKRIENANNRVVTFSKRRNGLVKKAKEITVLCDAKVALIIFASNGKMIDYCCPSMDLGAMLDQYQKLSGKKLWDAKHENLSNEIDRIKKENDSLQLELRHLKGEDIQSLNLKNLMAVEHAIEHGLDKVRDHQMEILISKRRNEKMMAEEQRQLTFQLQQQEMAIASNARPMMMRDHDGQFGYRVQPIQPNLQEKIMSLVID [G177P]: “increasing interaction”; for MGRGKIEIKRIENANNRVVTFSKRRNGLVKKAKEITVLCDAKVALIIFASNGKMIDYCCPSMDLGAMLDQYQKLSGKKLWDAKHENLSNEIDRIKKENDSLQLELRHLKGEDIQSLNLKNLMAVEHAIEHGLDKVRDHQMEILISKRRPEKMMAEEQRQLTFQLQQQEMAIASNARGMMMRDHDGQFGYRVQPIQPNLQEKIMSLVID [N149P]: “increasing interaction”; for MGRGKIEIKRIENANNRVVTFSKRRNGLVKKAKEITVLCDAKVALIIFASNGKMIDYCCPSMDLGAMLDQYQKLSGKKLWDAKHENPSNEIDRIKKENDSLQLELRHLKGEDIQSLNLKNLMAVEHAIEHGLDKVRDHQMEILISKRRNEKMMAEEQRQLTFQLQQQEMAIASNARGMMMRDHDGQFGYRVQPIQPNLQEKIMSLVID [L87P]: “decreasing interaction”.

A further test covers variants of B1. As to conditions: with sep3_arath SEP3, O22456. The source holds these as a separate data set.
MGRGKIEIKRIENANNRVVTFSKRRNGLVKKAKEITVLCDAKVALIIFASNGKMIDYCCPSMDLGAMLDQYQKLSGKKLWDAKHENLSSEIDRIKKENDSLQLELRHLKGEDIQSLNLKNLMAVEHAIEHGLDKVRDHQMEILISKRRNEKVMAEEQRQLTFQLQQQEMAIASNARGMMMRDHDGQFGYRVQPIQPNLQEKIMSLVID [N89S;M152V]: the “effect of a mutation on the interaction” value is “decreasing interaction”.

As for MGRGKIEIKRIENANNRVVTFSKRRNGLVKKAKEITVLCDAKVALIIFASNGKMIDYCCPSMDLGAMLDQYQKLSGKKLWDAKHENLSNEIDRIKKENDSLQLELRHLKGEDIQSLNLKNLMAVGHAIEHGLDKVRDHQMEILISKRRNEKMMAEEQRQLTFQLQQQEMAIASNARGMMMRDHDGQFGYRVQPIQPNLQEKIMSLVID [E125G], the “effect of a mutation on the interaction” value is on record as “decreasing interaction”. MGRGKIEIKRIENANNRVVTFSKRRNGLVKKAKEITVLCDAKVALIIFASNGKMIDYCCPSMDLGAMLDQYQKLSGKKLWDAKHENLSNEIDRIKKENDSLQLELRHLKGEDIQSLNPKNLMAVEHAIEHGLDKVRDHQMEILISKRRDEKMMAEEQRQPTFQLQQQEMAIASNARGMMMRDHDGQFGYRVQPIQPNLQEKIMSLVID [L118P;N149D;L160P]: the “effect of a mutation on the interaction” value is on record as “decreasing interaction”. For the variant MGRGKIEIKRIENANNRVVTFSKRRNGLVKKAKEITVLCDAKVALIIFASNGKMIDYCCPSMDLGAMLDQYQKLSGKKLWDAKHENLSNEIDRIKKENDSLQLELRHLKGEDIQSLNLKNLKAVEHAIEHGLDKVRDHQMKILISKRRNEKMMAEEQRQLTFQLQQQEMAIASNARGVMMRDHDGQFGYRVQPIQPNLQEKIMSLVID [M122K;E141K;M178V], the “effect of a mutation on the interaction” value was “decreasing interaction”. On the same count and under the same terms, in the case of MGRGKIEIKRIENANNRVVTFSKRRNGLVKKAKEITVLCDAKVALIIFASNGKMIDYCCPSMDLGAMLDQYQKLSGKKLWDAKHENLSNEIDRIKKENDSLQLELRHLKGEGIQSLNLKNLMAVEHAIEHGLDKVRDHQMEILISKRRNEKMMAEEQRQLTFQLQQQEMAIASNAGGMMMRDHDGQFGYRVQPIQPNLQEKIMSLVID [D112G;R176G] it was “decreasing interaction”; in that of MGRGKIEIKRIENANNRVVTFSKRRNGLVKKAKEITVLCDAKVALIIFASNGKMIDYCCPSMDLGAMLDQYQKLSGKKLWDAKHENLSNEIDRIKKENDSLQLEPRHLKGEAIQSLNLKNLMAVGHAIEHGLDKVRDHQMEILISKRRNEKMMAEEQRQLTFQLQQQEMAIASNARGMMMRDHDGQFGYRVQPIQPNLQEKIMSLAID [L105P;D112A;E125G;V206A], “decreasing interaction”; in that of MGRGKIEIKRIENANNRVVTFSKRRNGLVKKAKEITVLCDAKVALIIFASNGKMIDYCCPSMDLGAMLDQYQKLSGKKLWDAKHENLSNEIDRIKKENDSLQLELRHLKGEDIQSLNLKNLMADEHAIEHGLDKVRDHQMEILISKRRNEKMMAEEQRQLTFQLQQQEMAIASNARGMMMRDHDGQFGYRVQPIQPNLQEKIMSLVID [V124D], “decreasing interaction”. As for MGRGKIEIKRIENANNRVVTFSKRRNGLVKKAKEITVLCDAKVALIIFASNGKMIDYCCPSMDLGAMLDQYQKLSGKKLWDAKHENLSNEIDRIKKENDSLQLELRHLKGEDIQFLNLIILMAVEHAIEHGLDKVRDHQMEILISKRRNEKMMAEEQRQLTFQLQQQEMAIASNARGMMMRDHDGQFGYRVQPIQPNLQEKIMSLVID [S115F;K119I;N120I], the “effect of a mutation on the interaction” value is “decreasing interaction”. For the variant MGRGKIEIKRIENANNRVVTFSKRRNGLVKKAKEITVLCDAKVALIIFASNGKMIDYCCPSMDLGAMLDQYQKLSGKKLWDAKHENLSNEIDRIKKENDSLQLELRHLKGEDIQSLNLKNPMAVEHAIEHGLDKVRDHQMEILISKRRNEKMMAEEQRQLTFQLQQQEMAIASNARGMMMRDHDGQFGYRVQPIQPNLQEKIMSLVID [L121P], the “effect of a mutation on the interaction” value is reported as “decreasing interaction”.

On to MGRGKIEIKRIENANNRVVTFSKRRNGLVKKAKEITVLCDAKVALIIFASNGKMIDYCCPSMDLGAMLDQYQKLSGKKLWDAKHENLSNEIDRIKKENGSLQLELRHLKGEDIQSLNLKNLMAVEHAIEHGLDKVRDHQMEILISKRRNEKMMAEEQRQLTFQLQQQEMAIASNARGMMMRDHDGQFGYRVQPIQPNLGEKIMSLVID [D99G;Q199G], for which the “effect of a mutation on the interaction” value is given as “decreasing interaction”. Still for that read-out and setting: in the case of MGRGKIEIKRIENANNRVVTFSKRRNGLVKKAKEITVLCDAKVALIIFASNGKMIDYCCPSMDLGAMLDQYQKLSGKKLWDAKHENLSNEIDRIKKENDSLQLELRHLKGEDIQSPNLKNLMAVEHAIEHGLDKVRDHQMEILISKRRNEKTMAEEQRQLTFQLQQQEMAIASNARGMMMRDHDGQFGYRVQPIQPNLQEKIMSLVID [L116P;M152T] it was “decreasing interaction”.
